Substrate: O=C(O)c1ccc(O)c(O)c1
Assay: spectrophotometric CHMS formation, nonlinear Michaelis-Menten fit
Assay type: biochemical, Pseudarthrobacter phenanthrenivorans
Settings: 100 mM glycine-NaOH pH 9.5, 20 °C, co-substrate O2, Fe(II)/L-ascorbate preincubation likely, not stated for the Km

B1: PcaA (PCA 4,5-dioxygenase) (Pseudarthrobacter phenanthrenivorans Sphe3) (protein)
chain: MTLDKPYNDVPGTTIFDADQARKGYNLNQFCMSLMKPENRERYLADRGAYLDEWPLNPVQRQAVLDIDLNTCIAEGGNIYFLAKIGATHGLSFQQMAGSMTGMSEAAYRDMMIGGGRRPEGNRLKDLDGWTPPEPGEKAETVRQDAPAQYTSALFTSHVPAIGAAMDLGKTEEPYWKKVFSGYEWTREWAKENLPDVVILVYNDHATAFDSSIIPTFVLGTGAEYPVADEGYGPRPVPDVKGYPELAAHIAQSVIQDDFDLTLVNEMVVDHGLTVPLSLVYGDVEEWPVRVIPLAVNVVQYPVPSGRRCYELGRALRRALDKWDGEPLNVQIWGTGGMSHQLQGPRAGLINEEWDNAFLDHLIADPVGLTEWQHMEYVDEAGSEGIELVDWLIARGAMDDQFGGESPEVNHRFYHVPASNTAVGHLVLTNQTD
notes: full-length single-subunit alpha-beta fusion from plasmid pASPHE302; 1302 bp amplicon NdeI/XhoI in pET29c(+), His-column purified from E. coli BL21(DE3); ~45 kDa on SDS-PAGE, predicted 48 kDa
Km: 21 ± 1.6 µM
